Measured values published in patent US20060264369.

Target: von Willebrand factor full length (Homo sapiens) (UniProt P04275)
Assay: filter
Details: 3'-idT

CGGCCGTGCGGTGCCUCCGUCACGUGCAGUGCCG [ARC1533]
Kd (2'-OMe/deoxy composite, single PS, internal PEG, 31.7% bound at 100 nM vWF): 4 nM

CGUGCAGUGCCGGCCGTGCGGTGCCUCCGUCACG [ARC1531]
Kd (2'-OMe/deoxy composite, single PS, internal PEG, 20.0% bound at 100 nM vWF): 1.5 nM

CGUGCAGUGCCGGCCGTGCGGTGCCUCCGUCACG [ARC1532]
Kd (2'-OMe/deoxy composite, single PS, internal PEG, 19.3% bound at 100 nM vWF): 2.6 nM

GCGTGCAGTGCCTAGGCCGTGCGGTGCCTCCGTCACGCC [ARC1028]
Kd (internal PEG spacer after GCGTGCAGTGCCT, DPBS, 0.1 mg/mL BSA, RT): 1.1 nM

GCGUGCAGUGCCGGCCGTGCGGTGCCUCCGUCACGC [ARC1527]
Kd (2'-OMe/deoxy composite, single PS, internal PEG, 14.1% bound at 100 nM vWF): 3.4 nM

GCGUGCAGUGCCGGCCGTGCGGTGCCUCCGUCACGC [ARC1528]
Kd (2'-OMe/deoxy composite, single PS, internal PEG, 10.2% bound at 100 nM vWF): 4.2 nM

GGCGTGCAGTGCCGGCCGTGCGGTGCCTCCGTCACGCC [ARC1029]
Kd (internal PEG spacer after GGCGTGCAGTGCC, DPBS, 0.1 mg/mL BSA, RT): 1.4 nM
